Where “and” joins values, the source holds several entries; their conditions need not be identical. Equal entries are not always repeated. Marks after values point to notes of the source that are not given here.
Experiments:
[1] = tested on: supplied fatty acids in S. cerevisiae strain W303; test: Functional expression of PiDes12, PiDes6 and PiDes5 in S. cerevisiae fed with fatty acid substrates, GC of FAMEs; format: cell-based, Saccharomyces cerevisiae; conditions: for substrate conversion (ARA emergence after addition of DGLA): PiDes5 transformant, total fatty acids
Text: (§1) The open reading frames (ORFs) encoding for the […], Δ6, and Δ5 desaturases were amplified using PfuUltra II fusion HS DNA polymerase (Stratagene, La Jolla, Calif., USA) with the respective primer pairs (Table 1). The forward primers contained a restriction site (underlined) and a yeast translation consensus (double underlined) followed by ATG. The reverse primers contained a restriction site (underlined) and a stop codon (double underlined). Following restriction and ligation to the pYES2 vector (Invitrogen, Carlsbad, Calif., USA), the constructs were used to transform S. cerevisiae strain W303 by the PEG/lithium acetate method [R. D. Gietz, R. A. Woods, Yeast Transformation by the LiAc/SS Carrier DNA/PEG Method, in: W. Xiao (Ed.), Yeast Protocols, Second Edition, vol. 313, Methods in Molecular Biology, Humana Press Inc, Totowa, N. J., 2006, pp. 107-120]. The yeast cells harboring the empty pYES2 vector were used as control. Transformants were selected by uracil prototrophy on yeast synthetic medium (YSM) lacking uracil (Invitrogen, Carlsbad, Calif., USA). For functional expression, a minimal selection medium containing 2% (w/v) raffinose was inoculated with the pYPiDesΔ12, pYPiDesΔ6 or pYPiDesΔ5 transformants and grown at 27° C. for 24 h in a water bath shaker. Five ml of sterile YSM, containing 1% (w/v) Tergitol-40 and 250 µM of the appropriate fatty acid substrate was inoculated with raffinose-grown cultures to obtain an OD of 0.2 at 600 nm. Expression was induced by adding galactose to a final concentration of 2% (w/v) and cultures were further grown at 27° C. for 48 h. Cells were harvested by centrifugation, washed twice with 0.1% NaHCO^3, freeze-dried and used for fatty acid analysis.
(§2) Fatty acid methyl esters (FAMES) were obtained by transmethylation of the freeze-dried P. incisa or yeast biomass, with dry methanol containing 2% H2SO4 (v/v) and heating at 80° C. for 1.5 h while stirring under an argon atmosphere. Gas chromatographic analysis of FAMES was performed on a Thermo Ultra Gas chromatograph (Thermo Scientific, Italy) equipped with PTV injector, FID detector and a fused silica capillary column (30 m×0.32 mm; ZB WAXplus, Phenomenex). FAMES were identified by co-chromatography with authentic standards (Sigma Chemical Co., St. Louis, Mo.; Larodan Fine Chemicals, Malmo, Sweden) and FAME of fish oil (Larodan Fine Chemicals). Each sample was analyzed in duplicates of three independent experiments. The structures of fatty acids were confirmed by GC-MS of their pyrrolidine derivatives [W. W. Christie, The analysis of fatty acids in: W. W. Christie (Ed.), Lipid analysis Isolation, separation, identification and structural analysis of lipids, vol. 15, Third edition, The Oily Press, Bridgewater, England, 2003, pp. 205-225] on HP 5890 equipped with a mass selective detector (HP 5971A) utilizing a HP-5 capillary column and a linear temperature gradient from 120 to 300° C.
The functional activities of the proteins encoded by PiDes12, PiDes6 and PiDes5 were examined by heterologous expression in S. cerevisiae. To this aim, the pYES2 constructs pYPiDes12, pYPiDes6 and pYPiDes5 containing the ORFs for PiDes12, PiDes6, and PiDes5, respectively, were transformed into S. cerevisiae. […] An attempt to improve the expression of the recombinant protein and to increase the activity by the modification of yeast translation consensus was not successful.
PiDes6 and PiDes5 expressions were induced in the presence of the main ω6 substrates for Δ6 or Δ5 fatty acid desaturases, 18:2ω6 and 20:3ω6, respectively. New peaks corresponding to 18:3ω6 and 20:4ω6, respectively, were detected, confirming the predicted function of PiDes6 and PiDes5. […] PiDes6 was not active on […] either, whereas PiDes5 desaturated it to the non-methylene-interrupted 20:4^Δ5,11,14,17. PiDes5 converted 20:4ω3 into the respective Δ5 product, 20:5ω3 (EPA) as well as the added 18:1 into the non-methylene-interrupted 18:2^Δ5,9 (FIG. 3). […]

[2] = tested on: 20:3ω6 in lipid classes of S. cerevisiae; test: Fatty acid analysis of individual lipid classes of S. cerevisiae expressing the PiDes5 ORF, fed with 20:3ω6; format: cell-based, Saccharomyces cerevisiae; conditions: for % conversion: 24 h after feeding 20:3ω6
Text: as §1, §2
The biomass of S. cerevisiae was heated with isopropanol at 80° C. for 10 min and lipids were extracted by the method of Bligh-Dyer (1959) [E. G. Bligh, W. J. Dyer, A rapid method of total lipid extraction and purification, Can. J. Biochem. Physiol. 37 (1959) 911-917]. Total lipid extract was separated into neutral and polar lipids by silica Bond-Elute cartridges (Varian, Calif.) using 1% of ethanol in chloroform (v/v) and methanol to elute neutral and polar lipids, respectively [Z. Cohen, S. Didi, Y. M. Heimer, Overproduction of γ-linolenic and eicosapentaenoic acids by algae, Plant Physiol. 98 (1992) 569-572]. […]

[3] = substrate 18:1^Δ9, PiDesΔ5 product 18:2^Δ5,9, product/(substrate + product)
[4] = substrate 18:3^Δ9,12,15, PiDesΔ6 product 18:4^Δ6,9,12,15, PiDesΔ5 product 18:4^Δ5,9,12,15 (tentative identification)
[5] = substrate 20:3^Δ11,14,17, PiDesΔ5 product 20:4^Δ5,11,14,17

B1: PiDes12: P. incisa Δ12 desaturase, predicted protein of 380 amino acids, SEQ ID NO: 1 (protein, listed as Parietochloris incisa)
chain: MGKGGCYQAGPPSAKKWESRVPTAKPEFTIGTLRKAIPVHCFERSIPRSFAYLAADLAAIAVMYYLSTFIDHPAVPRVLAWGLLWPAYWYFQGAVATGVWVIAHECGHQAFSPYQWLNDAVGLVLHSCLLVPYYSWKHSHRRHHSNTGSTTKDEVFVPREAAMVESDFSLMQTAPARFLVIFVSLTAGWPAYLFANASGRKYGKWANHFDPYSPIFTKRERSEIVVSDVALTVVIAGLYSLGKAFGWAWLVKEYVIPYLIVNMWLVMITLLQHTHPELPHYADKEWDWLRGALATCDRSYGGMPDHLHHHIADTHVAHHLFSTMPHYHAQEATEAIKPILGKYYKQDKRNVWAALWEDFSLCRYVAPDTAGSGILWFRA
desaturation activity ([1]; heterologous expression in yeast): very low desaturation activity | peak corresponding to 18:2 ([1]; yeast transformed with pYPiDes12): 0.3 % of TFA

B2: PiDes6: P. incisa Δ6 desaturase, predicted protein of 481 amino acids, SEQ ID NO: 2 (protein, listed as Parietochloris incisa)
chain: MCQGQAVQGLRRRSSFLKLTGDAIKGAVAAISDFNKLPAATPVFARRSLSDSALQQRDGPRSKQQVTLEELAQHNTPEDCWLVIKNKVYDVSGWGPQHPGGHVIYTYAGKDATDVFACFHAQTTWSQLRPFCIGDIVEEEPMPALLKDFRELRTRLQQQGLFRSNKLYYLYKVASTLSLLAAALAVLITQRDSWLGLVGGAFLLGLFWQQSGWLAHDFLHHQVFTDRQWNNVMGYFLGNVCQGFSTDWWKSKHNVHHAVPNELDSDSKAARDPDIDTLPLLAWSSEMLDSMSNSGARLFVRMQHYFFFPILLFARMSWCQQSVAHASDLSRTSKAGVYELAYLALHYAWFLGAAFSVLPPLKAVVFALLSQMFSGFLLSIVFVQSHNGMEVYSDTKDFVTAQIVSTRDILSNVWNDWFTGGLNYQIEHHLFPTLPRHNLGKVQKSIMELCHKHGLVYENCGMATGTYRVLQRLANVAAEA
Desaturase product and conversion (%) of supplied fatty acid [1, 3]: neither active | Desaturase product and conversion (%) of supplied fatty acid ([1]; substrate 18:2^Δ9,12, PiDesΔ6 product printed 18:2^Δ6,9,12, product/(substrate + product)): 18:2^Δ6,9,12 (5.1) % | Desaturase product and conversion (%) of supplied fatty acid [1, 4]: 18:4^Δ6,9,12,15 (4.5) % | Desaturase product and conversion (%) of supplied fatty acid [1, 5]: not active

B3: PiDes5: P. incisa Δ5 desaturase, predicted protein of 482 amino acids, SEQ ID NO: 3 (protein, listed as Parietochloris incisa)
chain: MMAVTEGAGGVTAEVGLHKRSSQPRPAAPRSKLFTLDEVAKHDSPTDCWVVIRRRVYDVTAWVPQHPGGNLIFVKAGRDCTQLFDSYHPLSARAVLDKFYIGEVDVRPGDEQFLVAFEEDTEEGQFYTVLKKRVEKYFRENKLNPRATGAMYAKSLTILAGLALSFYGTFFAFSSAPASLLSAVLLGICMAEVGVSIMHDANHGAFARNTWASHALGATLDIVGASSFMWRQQHVVGHHAYTNVDGQDPDLRVKDPDVRRVTKFQPQQSYQAYQHIYLAFLYGLLAIKSVLLDDFMALSSGAIGSVKVAKLTPGEKLVFWGGKALWLGYFVLLPVVKSRHSWPLLAACWLLSEFVTGWMLAFMFQVAHVTSDVSYLEADKTGKVPRGWAAAQAATTADFAHGSWFWTQISGGLNYQVVHHLFPGICHLHYPAIAPIVLDTCKEFNVPYHVYPTFVRALAAHFKHLKDMGAPTAIPSLATVG
substrate conversion (ARA emergence after addition of DGLA) ([1]; after 3 h): 10.9% and 10.6% | substrate conversion (ARA emergence after addition of DGLA) ([1]; after 24 h): 15.1% | Desaturase product and conversion (%) of supplied fatty acid [1, 3]: 18:2^Δ5,9 (4.2) % | Desaturase product and conversion (%) of supplied fatty acid [1, 4]: 18:4^Δ5,9,12,15** (1.4) % | Desaturase product and conversion (%) of supplied fatty acid ([1]; substrate 20:3^Δ8,11,14, PiDesΔ5 product 20:4^Δ5,8,11,14): 20:4^Δ5,8,11,14 (16.4) % | Desaturase product and conversion (%) of supplied fatty acid [1, 5]: 20:4^Δ5,11,14,17 (10.0) % | Desaturase product and conversion (%) of supplied fatty acid ([1]; substrate 20:4^Δ8,11,14,17, PiDesΔ5 product 20:5^Δ5,8,11,14,17): 20:5^Δ5,8,11,14,17 (17.1) % | 20:4ω6, fatty acid composition ([2]; lipid class DAG): 2.0 % of total fatty acids | % conversion ([2]; lipid class DAG): 24.0% | 20:4ω6, fatty acid composition ([2]; lipid class FFA): 3.6 % of total fatty acids | % conversion ([2]; lipid class FFA): 17.2% | 20:4ω6, fatty acid composition ([2]; lipid class PC): 3.6 % of total fatty acids | % conversion ([2]; lipid class PC): 24.2% | 20:4ω6, fatty acid composition ([2]; lipid class PE): 1.6 % of total fatty acids | % conversion ([2]; lipid class PE): 24.6% | 20:4ω6, fatty acid composition ([2]; lipid class PI + PS): 1.1 % of total fatty acids | % conversion ([2]; lipid class PI + PS): 18.1% | 20:4ω6, fatty acid composition ([2]; lipid class SE): 1.1 % of total fatty acids | % conversion ([2]; lipid class SE): 8.4% | 20:4ω6, fatty acid composition ([2]; lipid class TAG): 2.0 % of total fatty acids | % conversion ([2]; lipid class TAG): 9.3% | 20:4ω6 share by lipid class (% of total lipid) ([2]; share found in lipid class DAG): 1.4 % TL | 20:4ω6 share by lipid class (% of total lipid) ([2]; share found in lipid class FFA): 9.1 % TL | 20:4ω6 share by lipid class (% of total lipid) ([2]; share found in lipid class PC): 25.7 % TL | 20:4ω6 share by lipid class (% of total lipid) ([2]; share found in lipid class PE): 2.3 % TL | 20:4ω6 share by lipid class (% of total lipid) ([2]; share found in lipid class PI + PS): 4.4 % TL | 20:4ω6 share by lipid class (% of total lipid) ([2]; share found in lipid class SE): 1.8 % TL | 20:4ω6 share by lipid class (% of total lipid) ([2]; share found in lipid class TAG): 55.2 % TL

Reference: patent publication US9315837B2, “Desaturases of a green microalga and uses thereof” (Ben Gurion University of the Negev Research and Development …, priority 2010, dated 2016)
